According to publication PMC1933414, “Role of RGM coreceptors in bone morphogenetic protein signaling” (Journal of Molecular Signaling, 2007):

Legend:
Experiment in all cases: SPR; BIAcore 3000; BMP2 (350 RU) or BMP12 (1000 RU) amine-coupled on CM5 chips; soluble RGM injected at 0.1-100 nM, 30 uL/min, 500 s, 25°C; HBS-EP pH 7.4 (0.15 M NaCl); global analysis with BIAevaluation 3.2; double referencing
[1] = molecular target: Human BMP12 (bone morphogenetic protein 12) (human) (UniProt Q7Z4P5)
[2] = molecular target: Human BMP2 (bone morphogenetic protein 2) (human) (UniProt P12643)
[3] = molecular target: T1, Human BMP2 (bone morphogenetic protein 2) (human, UniProt P12643 283-396); settings: both partners purified
T1 construct: bone morphogenetic protein 2, human; purified recombinant protein; also called recombinant human BMP2; source: produced and purified as previously described [37]

[4] = molecular target: T2, Human BMP12 (bone morphogenetic protein 12) (human, UniProt Q7Z4P5 322-450); settings: both partners purified
T2 construct: bone morphogenetic protein 12 (GDF7), human; the dimer peak from size exclusion was used; also called recombinant human BMP12; source: E. coli, purified (SP-Sepharose cation exchange, size exclusion; dimer peak)
T2 sequence (looked up): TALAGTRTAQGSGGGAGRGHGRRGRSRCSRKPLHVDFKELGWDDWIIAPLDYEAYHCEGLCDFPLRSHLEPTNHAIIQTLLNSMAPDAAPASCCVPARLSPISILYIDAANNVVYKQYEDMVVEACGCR

T1 sequence (P12643 283-396): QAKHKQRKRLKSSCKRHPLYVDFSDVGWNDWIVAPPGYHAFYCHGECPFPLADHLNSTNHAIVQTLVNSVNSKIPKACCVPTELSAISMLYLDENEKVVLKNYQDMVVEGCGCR
Sequence of Human BMP2 (bone morphogenetic protein 2) (human) (P12643 283-396): as above

RGMb-Fc (ectodomain of RGMb fused to the Fc portion of human IgG) (from UniProt Q6NW40 46-413) (Fc fusion)
Kd [1]: 2.06 nM
koff [1]: 0.000118 s⁻¹
kon [1]: 56900 M⁻¹ s⁻¹
Kd [2]: 5.43 nM
koff [2]: 0.000256 s⁻¹
kon [2]: 47200 M⁻¹ s⁻¹

RGMc-Fc (ectodomain of RGMc fused to the Fc portion of human IgG) (from UniProt Q6ZVN8 36-400) (Fc fusion)
Kd [1]: 1.22 nM
koff [1]: 9.22e-05 s⁻¹
kon [1]: 75600 M⁻¹ s⁻¹
Kd [2]: 4.22 nM
koff [2]: 0.000363 s⁻¹
kon [2]: 86100 M⁻¹ s⁻¹

B1: RGMa-Fc (ectodomain of RGMa fused to the Fc portion of human IgG) (Fc fusion)
chain: CKILKCNSEFWSATSGSHAPASDDTPEFCAALRSYALCTRRTARTCRGDLAYHSAVHGIEDLMSQHNCSKDGPTSQPRLRTLPPAGDSQERSDSPEICHYEKSFHKHSATPNYTHCGLFGDPHLRTFTDRFQTCKVQGAWPLIDNNYLNVQVTNTPVLPGSAATATSKLTIIFKNFQECVDQKVYQAEMDELPAAFVDGSKNGGDKHGANSLKITEKVSGQHVEIQAKYIGTTIVVRQVGRYLTFAVRMPEEVVNAVEDWDSQGLYLCLRGCPLNQQIDFQAFHTNAEGTGARRLAAASPAPTAPETFPYETAVAKCKEKLPVEDLYYQACVFDLLTTGDVNFTLAAYYALEDVKMLHSNKDKLHLYERTRDLPGRA
Kd [3]: 2.46 nM
koff [3]: 0.000364 s⁻¹
kon [3]: 148000 M⁻¹ s⁻¹
Kd [4]: 1.41 nM
koff [4]: 0.000179 s⁻¹
kon [4]: 127000 M⁻¹ s⁻¹
